Results taken from publication PMC9814530 (2022).
Where no end group is shown, it is not given here.

B1: ACE2-binding peptide ABP C2 (peptide)
chain: LHFAKWNHVWSWK-NH2
modifications: also: biotinylated, position not given here
B2: ACE2-binding peptide ABP C4 (peptide)
chain: LKVKYMWDYLFGK-NH2
modifications: also: biotinylated, position not given here
B3: ACE2-binding peptide ABP C1 (peptide)
chain: LFRGYFAAMNNLK-NH2
modifications: also: biotinylated, position not given here

The binders below were run against human angiotensin converting enzyme 2 (ACE2), recombinant (human, UniProt Q9BYF1 18-740) (assay: BLI).
Chain of human angiotensin converting enzyme 2 (ACE2), recombinant (Q9BYF1 18-740): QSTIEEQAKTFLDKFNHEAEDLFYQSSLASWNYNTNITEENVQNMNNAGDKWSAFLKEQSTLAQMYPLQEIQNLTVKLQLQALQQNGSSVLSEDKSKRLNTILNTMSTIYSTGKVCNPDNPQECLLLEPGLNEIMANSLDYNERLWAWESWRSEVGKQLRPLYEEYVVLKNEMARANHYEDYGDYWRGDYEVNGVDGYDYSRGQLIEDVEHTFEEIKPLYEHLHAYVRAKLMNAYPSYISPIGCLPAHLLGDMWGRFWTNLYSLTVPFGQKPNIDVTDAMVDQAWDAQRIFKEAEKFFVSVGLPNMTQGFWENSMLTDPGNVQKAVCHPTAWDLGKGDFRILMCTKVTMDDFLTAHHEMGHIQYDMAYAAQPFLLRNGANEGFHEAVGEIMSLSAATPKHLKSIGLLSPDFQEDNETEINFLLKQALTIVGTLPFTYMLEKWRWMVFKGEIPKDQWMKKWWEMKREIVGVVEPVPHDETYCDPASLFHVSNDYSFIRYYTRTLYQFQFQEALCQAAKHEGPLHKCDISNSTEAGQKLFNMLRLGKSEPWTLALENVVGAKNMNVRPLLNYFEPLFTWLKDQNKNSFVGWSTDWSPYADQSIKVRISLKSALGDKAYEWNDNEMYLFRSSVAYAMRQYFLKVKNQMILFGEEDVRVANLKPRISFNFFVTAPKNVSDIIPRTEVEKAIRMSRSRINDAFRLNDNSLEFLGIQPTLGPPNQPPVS
With B1 the Kd was 57 nM.
B2 showed a Kd of 58 nM.
Binder B3 has a Kd of 66 nM.
